From patent US20110306057A1

Target: PP2A regulatory subunit B56γ (human (endogenous in human HEK TER cells)), Q13362
Experiment: anti-FLAG co-IP from HEK TER cells, immunoblot, densitometry; +++ >90%, ++ 50-90%, + <50%
Conditions: remark: other sources report otherwise

Sequence of PP2A regulatory subunit B56γ (human (endogenous in human HEK TER cells)), Q13362 (Q13362 whole entry): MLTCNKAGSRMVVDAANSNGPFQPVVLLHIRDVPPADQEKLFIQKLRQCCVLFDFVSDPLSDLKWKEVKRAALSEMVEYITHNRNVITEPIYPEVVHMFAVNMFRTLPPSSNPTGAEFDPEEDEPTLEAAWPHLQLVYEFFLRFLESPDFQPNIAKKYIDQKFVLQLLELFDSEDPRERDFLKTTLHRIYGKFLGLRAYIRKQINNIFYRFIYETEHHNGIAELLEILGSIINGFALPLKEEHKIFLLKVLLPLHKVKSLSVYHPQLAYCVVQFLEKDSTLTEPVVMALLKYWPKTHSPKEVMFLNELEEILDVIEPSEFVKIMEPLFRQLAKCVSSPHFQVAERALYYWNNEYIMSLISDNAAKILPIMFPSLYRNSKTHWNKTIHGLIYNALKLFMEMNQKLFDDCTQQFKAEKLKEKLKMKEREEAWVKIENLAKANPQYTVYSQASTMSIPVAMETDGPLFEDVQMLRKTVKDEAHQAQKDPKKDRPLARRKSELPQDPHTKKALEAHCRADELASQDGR

binding level (percent, co-immunoprecipitation densitometry): > 90%
B1: wild type (WT) FLAG epitope-tagged version of PP2A Aβ, P30154 1-601 (protein, not shown: small tags and cut ends)
chain: MAGASELGTGPGAAGGDGDDSLYPIAVLIDELRNEDVQLRLNSIKKLSTIALALGVERTRSELLPFLTDTIYDEDEVLLALAEQLGNFTGLVGGPDFAHCLLPPLENLATVEETVVRDKAVESLRQISQEHTPVALEAYFVPLVKRLASGDWFTSRTSACGLFSVCYPRASNAVKAEIRQQFRSLCSDDTPMVRRAAASKLGEFAKVLELDSVKSEIVPLFTSLASDEQDSVRLLAVEACVSIAQLLSQDDLETLVMPTLRQAAEDKSWRVRYMVADRFSELQKAMGPKITLNDLIPAFQNLLKDCEAEVRAAAAHKVKELGENLPIEDRETIIMNQILPYIKELVSDTNQHVKSALASVIMGLSTILGKENTIEHLLPLFLAQLKDECPDVRLNIISNLDCVNEVIGIRQLSQSLLPAIVELAEDAKWRVRLAIIEYMPLLAGQLGVEFFDEKLNSLCMAWLVDHVYAIREAATNNLMKLVQKFGTEWAQNTIVPKVLVMANDPNYLHRMTTLFCINALSEACGQEITTKQMLPIVLKMAGDQVANVRFNVAKSLQKIGPILDTNALQGEVKPVLQKLGQDEDMDVKYFAQEAISVLALA
